From US11357833B2, “Use of lysin to restore/augment antibacterial activity in the presence of pulmonary surfactant of antibiotics inhibited thereby” (priority 2015, dated 2022)
In brackets after ≈: the same amount, converted by molar mass.

B1: CF-301: Bacteriophage lysin polypeptide, SEQ ID NO: 1 (GenBank accession ZP 03625529), antimicrobial agent against Staphylococcus aureus (protein, listed as Streptococcus suis)
chain: MTTVNEALNNVRAQVGSGVSVGNGECYALASWYERMISPDATVGLGAGVGWVSGAIGDTISAKNIGSSYNWQANGWTVSTSGPFKAGQIVTLGATPGNPYGHVVIVEAVDGDRLTILEQNYGGKRYPVRNYYSAASYRQQVVHYITPPGTVAQSAPNLAGSRSYRETGTMTVTVDALNVRRAPNTSGEIVAVYKRGESFDYDTVIIDVNGYVWVSYIGGSGKRNYVATGATKDGKRFGNAWGTFK

How the values were obtained:
MSSA NRS-131 = assay: Combination MIC assay in 7.5% surfactant; set-up: MIC alone / MIC combo: unit not given beside the values; conditions: for MIC combo: CF-301 and daptomycin in combination; for MIC alone: single agent
MRSA NRS-192 = assay: Combination MIC assay in 7.5% surfactant; set-up: MIC alone / MIC combo: unit not given beside the values; conditions: for MIC combo: CF-301 and daptomycin in combination; for MIC alone: single agent
MSSA Newman = assay: Combination MIC assay in 7.5% surfactant; set-up: MIC alone / MIC combo: unit not given beside the values; conditions: for MIC combo: CF-301 and daptomycin in combination; for MIC alone: single agent
MRSA NRS-255 = assay: Combination MIC assay in 7.5% surfactant; set-up: MIC alone / MIC combo: unit not given beside the values; conditions: for MIC combo: CF-301 and daptomycin in combination; for MIC alone: single agent
MRSA MW2 [1] = assay: Combination MIC assay in 7.5% surfactant; set-up: MIC alone / MIC combo: unit not given beside the values; conditions: for MIC combo: CF-301 and daptomycin in combination; for MIC alone: single agent
[2] = test system: methicillin-susceptible (MSSA) strain ATCC 29213; assay: MIC by broth microdilution, with and without bovine-derived surfactant
[3] = test system: MRSA, MSSA, and VISA strains of S. aureus; assay: MIC by broth microdilution in increasing surfactant, strains pooled; conditions: for Antimicrobial activity in the presence of pulmonary (bovine-derived) surfactant: MRSA, MSSA and VISA strains
MSSA ATCC 25923 = assay: Combination MIC assay in 7.5% surfactant; set-up: MIC alone / MIC combo: unit not given beside the values; conditions: for MIC combo: CF-301 and daptomycin in combination; for MIC alone: single agent
MSSA ATCC 29213 = assay: Combination MIC assay in 7.5% surfactant; set-up: MIC alone / MIC combo: unit not given beside the values; conditions: for MIC combo: CF-301 and daptomycin in combination; for MIC alone: single agent
[4] = test system: S. aureus (MRSA strain ATCC BAA-42); assay: Murine model of S. aureus pneumonia; conditions: 14 days; CF-301 i.v., DAP s.c.; once daily
MSSA ATCC 49521 = assay: Combination MIC assay in 7.5% surfactant; set-up: MIC alone / MIC combo: unit not given beside the values; conditions: for MIC combo: CF-301 and daptomycin in combination; for MIC alone: single agent
MRSA NRS-265 = assay: Combination MIC assay in 7.5% surfactant; set-up: MIC alone / MIC combo: unit not given beside the values; conditions: for MIC combo: CF-301 and daptomycin in combination; for MIC alone: single agent
MRSA BAA-1720 = assay: Combination MIC assay in 7.5% surfactant; set-up: MIC alone / MIC combo: unit not given beside the values; conditions: for MIC combo: CF-301 and daptomycin in combination; for MIC alone: single agent
[5] = test system: methicillin resistant strain (MRSA) MW2; assay: MIC by broth microdilution, with and without bovine-derived surfactant
MRSA MW2 [6] = assay: BODIPY-labeled daptomycin binding assay, fluorescence microscopy; conditions: CF-301 8 μg/ml; BODIPY-DAP 4 μg/ml; 7.5% surfactant
VISA ATCC 700699 = assay: as above; conditions: CF-301 4 μg/ml; DAP^BD 4 μg/ml; 30 min; 7.5% surfactant
[7] = test system: 5 strains of MRSA and 5 strains of MSSA; assay: Combination MIC assay in 7.5% surfactant, strains pooled; conditions: CF-301 and DAP combined, across strains

Molecule	Fold reduction (MIC alone vs combo) (MSSA NRS-131)	MIC combo (MSSA NRS-131)	MIC alone (MSSA NRS-131)	Fold reduction (MIC alone vs combo) (MRSA NRS-192)	MIC combo (MRSA NRS-192)	MIC alone (MRSA NRS-192)	Fold reduction (MIC alone vs combo) (MSSA Newman)	MIC combo (MSSA Newman)	MIC alone (MSSA Newman)	Fold reduction (MIC alone vs combo) (MRSA NRS-255)	MIC combo (MRSA NRS-255)	MIC alone (MRSA NRS-255)	Fold reduction (MIC alone vs combo) (MRSA MW2 [1])	MIC combo (MRSA MW2 [1])	MIC alone (MRSA MW2 [1])	Antimicrobial activity in the presence of pulmonary (bovine-derived) surfactant [3]	Fold reduction (MIC alone vs combo) (MSSA ATCC 25923)	MIC combo (MSSA ATCC 25923)	MIC alone (MSSA ATCC 25923)	Fold reduction (MIC alone vs combo) (MSSA ATCC 29213)	also measured
CCCCCCCCCC(=O)N[C@@H](Cc1c[nH]c2ccccc12)C(=O)N[C@H](CC(N)=O)C(=O)N[C@@H](CC(=O)O)C(=O)N[C@@H]1C(=O)NCC(=O)N[C@@H](CCCN)C(=O)N[C@@H](CC(=O)O)C(=O)N[C@H](C)C(=O)N[C@@H](CC(=O)O)C(=O)NCC(=O)N[C@H](CO)C(=O)N[C@@H]([C@H](C)CC(=O)O)C(=O)N[C@@H](CC(=O)c2ccccc2N)C(=O)O[C@@H]1C [DAP, daptomycin, reference compound]	1024 fold	0.5	512	512 fold	0.5	256	512 fold	0.5	256	1024 fold	0.5	512	1024 fold	0.25	256	not active	512 fold	0.5	256	512 fold	MIC ([2]; Staphylococcus aureus, ATCC29213|MSSA, 24 h, read-out: Starting MIC (without surfactant)): 1 µg/mL (≈ 0.617 µM); MIC increase ([3]; strain not specified, surfactant concentrations 1.25-15%): 256 fold; MIC combo (MSSA ATCC 29213): 0.5; MIC alone (MSSA ATCC 29213): 256; Survival pattern, comparison between treatment groups [4]: same survival pattern as those treated with saline; Fold reduction (MIC alone vs combo) (MSSA ATCC 49521): 512 fold; MIC combo (MSSA ATCC 49521): 0.5; MIC alone (MSSA ATCC 49521): 256; Fold reduction (MIC alone vs combo) (MRSA NRS-265): 1024 fold; MIC combo (MRSA NRS-265): 0.25; MIC alone (MRSA NRS-265): 256; Fold reduction (MIC alone vs combo) (MRSA BAA-1720): 1024 fold; MIC combo (MRSA BAA-1720): 0.25; MIC alone (MRSA BAA-1720): 256; MIC ([5]; Staphylococcus aureus, MRSA, 24 h, read-out: Starting MIC (without surfactant)): 1 µg/mL (≈ 0.617 µM)
B1	16 fold	4	64	16 fold	4	64	32 fold	4	128	16 fold	2	64	32 fold	2	64	active	32 fold	4	128	32 fold	Starting MIC (without surfactant) ([2]; ATCC 29213, no surfactant, 24 hours at 35° C.): 16 µg/mL; MIC increase ([2]; MSSA strain, surfactant concentrations 1.25-15%): up to 2 fold; MIC combo (MSSA ATCC 29213): 4; MIC alone (MSSA ATCC 29213): 128; BODIPY-DAP (DAP^BD) binding to MRSA (MRSA MW2 [6]): promotes; Fold reduction (MIC alone vs combo) (MSSA ATCC 49521): 32 fold; MIC combo (MSSA ATCC 49521): 2; MIC alone (MSSA ATCC 49521): 64; DAP^BD binding to VISA (VISA ATCC 700699): promotes; Fold reduction (MIC alone vs combo) (MRSA NRS-265): 16 fold; MIC combo (MRSA NRS-265): 4; MIC alone (MRSA NRS-265): 64; Fold reduction (MIC alone vs combo) (MRSA BAA-1720): 32 fold; MIC combo (MRSA BAA-1720): 2; MIC alone (MRSA BAA-1720): 64; MIC increase ([5]; MRSA strain, surfactant concentrations 1.25-15%): up to 2 fold; Starting MIC (without surfactant) ([5]; MW2, no surfactant, 24 hours at 35° C.): 32 µg/mL; Growth inhibitory concentration lower in combination than as single agent (MIC reduction) [7]: 16-32 fold
